The source of these data is paper PMC5818494, “Specific Recognition of Arginine Methylated Histone Tails by JMJD5 and JMJD7” (Scientific Reports, 2018).

The target of experiment [1] is T1, c-JMJD5 (Homo sapiens, UniProt Q8N371).
T1 construct: JMJD5 (residues 183–416, c-JMJD5) lacking the N-terminal domain; made in house
The experiment can be described thus: Biacore surface plasmon resonance binding of c-JMJD5 to immobilised bulk histone or synthetic peptides. The settings on record: C-terminal biotin peptide on SA chip or bulk histone on CM5 chip, c-JMJD5 injected, room temperature. How it is done: (§1) Data were integrated and scaled using the HKL2000 suite of programs.
(§2) 10 μg/ml calf bulk histone was dissolved in coating buffer (50 mM sodium acetate [pH 5.0]) and coated onto a CM5 chip (GE Healthcare). […] For peptides, 2 μg/ml synthetic peptide with C-terminal biotin was dissolved in PBS and coated onto a streptavidin coated SA chip (GE Healthcare). […] Similar procedures were carried out for JMJD5. All experiments are carried out at room temperature.
(In general: SPR reads the build-up and loss of mass on a sensor chip optically.)

For experiment [2], the target named is T2, JMJD7 (Mus musculus, UniProt P0C872).
T2 construct: The final model contains residues 1–316; GST (N, cleaved yes); made in house
T2 sequence (P0C872 whole entry, the tested form may be a part): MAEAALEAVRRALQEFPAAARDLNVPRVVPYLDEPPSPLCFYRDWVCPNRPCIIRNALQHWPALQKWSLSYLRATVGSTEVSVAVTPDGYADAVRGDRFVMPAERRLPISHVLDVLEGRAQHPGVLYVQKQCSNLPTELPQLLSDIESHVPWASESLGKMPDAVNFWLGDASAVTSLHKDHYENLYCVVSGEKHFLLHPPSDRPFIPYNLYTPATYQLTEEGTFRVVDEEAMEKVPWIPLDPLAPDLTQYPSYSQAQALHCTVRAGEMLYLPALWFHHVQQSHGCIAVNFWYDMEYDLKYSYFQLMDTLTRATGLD
The experiment can be described thus: Biacore surface plasmon resonance binding of JMJD7 to immobilised bulk histone or synthetic peptides. Particulars: C-terminal biotin peptide on SA chip or bulk histone on CM5 chip, JMJD7 injected, room temperature. How it is done: as §1, §2

The target in experiment [3] is T1, c-JMJD5. Particulars: fluorescence polarization, c-JMJD5, previous report; read-out: binding affinity; cited from earlier work. An excerpt: The binding affinities of various lysine binding domains, such as Chromodomains, PHD fingers, Tudor domains, etc., to lysine residues with and without methylation has been very well established. It is also true that the difference in binding affinity of Tudor domains to arginine with and without methylation is also marginal. The question here is whether c-JMJD5 or JMJD7 has different binding affinity depending on the methylation status of arginine. From the complex structure shown above, c-JMJD5 contains a binding pocket for methylarginine that is similar to those of Tudor domains (Fig ... || Clipping of histone tails, high turnover rates of histone in non-proliferating cells, arginine demethylation, and Pol II elongation control are highly contentious subjects in the transcription and epigenetic fields. Our previous novel discovery of clipping of arginine methylated histone tails by JMJD5 and JMJD7 sheds light on how these topics are intrinsically coupled. Data presented here not only reveal the underlying mechanism of novel enzymatic activities of JMJD5 and JMJD7, but also further corroborate our previous findings. Shortly after the release of our report, Shen et al. also repo ...
In general terms: In fluorescence polarisation assays a small probe gives low polarisation when free and higher when bound to something large.

T1 sequence (Q8N371 183-416): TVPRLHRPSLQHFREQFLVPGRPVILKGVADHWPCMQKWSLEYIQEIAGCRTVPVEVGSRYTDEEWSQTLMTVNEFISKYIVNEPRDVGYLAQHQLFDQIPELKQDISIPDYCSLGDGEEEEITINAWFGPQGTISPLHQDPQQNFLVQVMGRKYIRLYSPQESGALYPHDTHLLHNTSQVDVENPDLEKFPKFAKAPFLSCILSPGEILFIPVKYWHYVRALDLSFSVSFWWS

On to pH3: native form of H3 peptide (1–21), for which the “binding in words (SPR sensorgram)” value in experiment [1] and in experiment [2] was “non-specific binding” in each case. Also, in experiment [3], the Kd is about 7 µM.
